From the supplement of paper PMC12764529
± gives the half width of the 95% confidence interval.

Key:
[1] = folding stability dG unfold (combined trypsin and chymotrypsin); higher = more stable
Procedure, shortened: (§1)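 K50 was inferred by Bayesian fitting of sequencing counts obtained after protease digestion of designed mini-proteins. Unfolding free energy was derived by comparison with a sequence-predicted unfolded-state K50 and a shared folded-state K50, for each protease or both combined. The mini-proteins were under 80 residues, had no cysteine, were carried in a PA-tagged cDNA display construct, and were kept only if AlphaFold2 dimer inter-PAE exceeded 15.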

[2] = folding stability dG unfold from trypsin proteolysis; higher = more stable
Procedure, shortened: as §1

[3] = folding stability dG unfold from chymotrypsin proteolysis; higher = more stable
Procedure, shortened: as §1

| Sequence | folding stability dG unfold [1] | folding stability dG unfold [2] | folding stability dG unfold [3] |
| --- | --- | --- | --- |
| SAGGKKKAKAYIVEKTTEKEGLKYYKVLIELGGKPLVFVIKSTSLEEVEEAIKKLAEELGVEVEIVPGSAGG [r13_750_TrMRF] | 4.53 ± 0.08 kcal/mol | 3.77 ± 0.1 kcal/mol | 4.69 ± 0.089 kcal/mol |
| SAGGKKKIKIIEKKKINGKTILKIEVDGKKIIIIKTPNKVYIFVIDKNGKKKVIEMSPEEALKKLIEKSAGG [r13_98_TrROS_Hall] | 3.59 ± 0.13 kcal/mol | 2.08 ± 0.075 kcal/mol | 3.95 ± 0.042 kcal/mol |
| SAGGKKKITITIEEVEELENGPLVYRVTIEVDGKTYEILIEADSLEEAKAAAEKLAEELNVEVTIEPVSAGG [r13_750_TrROS_Hall] | 3.86 ± 0.11 kcal/mol | 2.55 ± 0.097 kcal/mol | 4.22 ± 0.048 kcal/mol |
| SAGGKKKKKKPKIVRVKITLKNENGEEIEIDEAVILPDGTILIRDKKTGKIFEIKLDDITKIEIEEVSAGGS [r8_410_TrROS_Hall] | 2.8 ± 0.17 kcal/mol | 1.99 ± 0.086 kcal/mol | 3.02 ± 0.098 kcal/mol |
| SAGGKKKKLVIKDKKTNKYYEIENAKEIVKIEKVKGKDGKTYYVIYFKKTKKKIVIKTKEDLEKALKSAGGS [r8_206_TrROS_Hall] | 1.23 ± 0.29 kcal/mol | 1.26 ± 0.24 kcal/mol | 1.18 ± 0.38 kcal/mol |
| SAGGKKKKVKKIKVKVKIKLKNGEEVTITEAYVLPDGTVIIKVEVTKPDGSKETKTFTIPLKDIEIESAGGS [r16_498_TrROS_Hall] | 3.34 ± 0.11 kcal/mol | 2.24 ± 0.075 kcal/mol | 3.7 ± 0.07 kcal/mol |
| SAGGKKKLTLEIKIKVPKEEEEKAKEKAKKLAEELAKKLKEAGYKVKVTVEIDEETGEITVKVEVELPSAGG [r13_755_TrROS_Hall] | 3.43 ± 0.49 kcal/mol | 2.84 ± 0.34 kcal/mol | 3.54 ± 0.55 kcal/mol |
| SAGGKKKPKIRIKVEIDGKTVEVEVESPEELVEALKELGFEVEVVEVTEKTVVIKLKDGKLIRIEKESAGGS [r8_365_TrROS_Hall] | 2.02 ± 0.047 kcal/mol | 1.91 ± 0.072 kcal/mol | 2.06 ± 0.026 kcal/mol |
| SAGGKKKTIVLEVKVENLEEILKLAKEAAKAGDKVTVKVKLPDGEVYTVTVDVKTGKIVKVEKKKLPKSAGG [r13_873_TrROS_Hall] | 2.81 ± 0.2 kcal/mol | 1.98 ± 0.097 kcal/mol | 3.3 ± 0.18 kcal/mol |
| SAGGKKKVIEIKIEIKVPKEELKNMTKEEIAELLKKELEKKGIKIKKIEIVEIEIDGDTVTITIRIELSAGG [r13_432_TrROS_Hall] | 2.72 ± 0.3 kcal/mol | 2.18 ± 0.15 kcal/mol | 2.92 ± 0.2 kcal/mol |
| SAGGKKNEKKPIEIDGVFFNPETGKLVKIGPAKIIVPKNAKIELEAEVFDPVTGEVKKVKFKFELPAGSAGG [r13_206_TrMRF] | 0.699 ± 0.14 kcal/mol | 0.548 ± 0.057 kcal/mol | 0.816 ± 0.094 kcal/mol |
| SAGGKKNKPKPKVKVKILSVTANPDPNTPGLLSVSVPVLIESDDEEFALALAKELAKLPNVKVVVLGGSAGG [r13_606_TrMRF] | 1.42 ± 0.048 kcal/mol | 1.34 ± 0.023 kcal/mol | 1.42 ± 0.037 kcal/mol |
| SAGGKKVEITIEASPEEAEELAKKLEELFPDVKVEVVEVKPEEPVRVTVRVEVKVELSPEELKKLLESAGGS [r16_180_TrROS_Hall] | 1.4 ± 0.14 kcal/mol | 1.45 ± 0.085 kcal/mol | 1.37 ± 0.11 kcal/mol |
| SAGGKKVIITKVETNKNGKKTYTVTLYYKDKKTNEWKKVAEFTFESKEEAENAAKELAKKLNLKIIPSAGGS [r16_512_TrROS_Hall] | 4.77 ± 0.11 kcal/mol | 3.08 ± 0.087 kcal/mol | 5 ± 0.088 kcal/mol |
| SAGGKKVIVIEGLTEEEILEKIKEEFPEPVEVIIRRPDGYVVKITVDAKTREIKKVEVVKVPPPEKPSAGGS [r8_225_TrROS_Hall] | 1.79 ± 0.29 kcal/mol | 1.57 ± 0.15 kcal/mol | 2.01 ± 0.16 kcal/mol |
| SAGGKLIIVIEVNGETIEVDLEEAETLEEAIQKVLDEIRERFPEIGTVRIKVFDEKGKLIKEIEIKLKSAGG [r13_257_TrROS_Hall] | 3.51 ± 0.17 kcal/mol | 3.25 ± 0.12 kcal/mol | 3.6 ± 0.18 kcal/mol |
| SAGGKLLEELNVEKVEVVEVKEFSLPPLPLLVLLPTVTVTFKDGSKVKFKVLFLYDPSNPKPIVVAGSAGGS [r8_422_TrMRF] | 3.07 ± 0.16 kcal/mol | 2.42 ± 0.1 kcal/mol | 3.64 ± 0.048 kcal/mol |
| SAGGKLPKLPPGQIEIMDFQIEPDPDGRYKMSFMITITAPDNGKKVVVMLEMWMPPDGEMKTGIGIMPSAGG [r13_263_TrROS] | 2.65 ± 0.34 kcal/mol | 1.9 ± 0.14 kcal/mol | 2.85 ± 0.15 kcal/mol |

| Sequence | folding stability dG unfold [1] | folding stability dG unfold [2] | folding stability dG unfold [3] |
| --- | --- | --- | --- |
| SAGGKLTLELEFELEDGLRVRLRVEVDEDGELRVTLEVEPEPPPPPIRVVKNEDGSEYVYRNGKLYKLSAGG [r13_151_TrROS_Hall] | 4.16 ± 0.84 kcal/mol | 3.55 ± 0.16 kcal/mol | 5.18 ± 0.45 kcal/mol |
| SAGGKMVKIKIVVEVKVEEEVKEGEKVETFKVELTIELPEEEVEKLKAELEKLFPDVKIVEIEKVEPSAGGS [r8_490_TrROS_Hall] | 3.7 ± 0.34 kcal/mol | 3.39 ± 0.24 kcal/mol | 3.86 ± 0.47 kcal/mol |
| SAGGKNVKKYVPIEIEIEAPSPEVAEATAEEIEKIIREKFPGAKVEVEMEPLPDGGYKLKVKVYVPVGSAGG [r13_17_TrMRF] | 3.11 ± 0.07 kcal/mol | 1.82 ± 0.059 kcal/mol | 3.47 ± 0.059 kcal/mol |
| SAGGKPAKPTRLDFPDDDVKTVPANTKIILTRPDGSKLVIELPEEEFTAKPDEWVFETPTSKITFPIASAGG [r13_643_TrMRF] | 0.725 ± 0.21 kcal/mol | 0.767 ± 0.092 kcal/mol | 0.657 ± 0.15 kcal/mol |
| SAGGKPGEKPRIRIQVKVRYPGNGRKQSITIEIVPDAIEQGLSASELADEIARKMGMPVKIEEIEILSAGGS [r16_554_TrROS] | 1.79 ± 0.04 kcal/mol | 1.873 ± 0.015 kcal/mol | 1.692 ± 0.013 kcal/mol |
| SAGGKPKEIKIKVEVEEKEVNGKKYLVVKIELEVDGKKIEIELVVEMSEEEKEKAKKLAEELLKKLKSAGGS [r8_480_TrROS_Hall] | 2.82 ± 0.4 kcal/mol | 2.6 ± 0.21 kcal/mol | 2.77 ± 0.22 kcal/mol |
| SAGGKPLTVEDAKELAESLAKPLKEELGLGNVKILAAPVEVGGEEGKPAEVRIGFLFDLSEDGEFVGSAGGS [r16_751_TrMRF] | -0.112 ± 0.23 kcal/mol | -0.405 ± 0.31 kcal/mol | 0.0162 ± 0.16 kcal/mol |
| SAGGKPNWVWFKITINVTPEQLENMTLDEIADRVIDELMKLGFPIKKIEIDEIQWDGDRVTIYIRIRVSAGG [r13_432_TrROS] | 4.35 ± 0.14 kcal/mol | 4.18 ± 0.16 kcal/mol | 4.59 ± 0.099 kcal/mol |
| SAGGKPPGLSEIPLPDNKTEKVPVNSDIVLKRPDGTELKYKLPPEPVTTEKNKYTIKLPNGEITIPINSAGG [r13_643_JUSTAS] | -0.0992 ± 0.32 kcal/mol | -1.03 ± 0.26 kcal/mol | -0.0683 ± 0.26 kcal/mol |
| SAGGKPPKIVVKVEKAPNPETGTYTYKVVLYDPVTGKAYVKPVKTKTPEELEKKAKEVAEELAKELASAGGS [r8_480_TrMRF] | 1.17 ± 0.084 kcal/mol | 0.727 ± 0.025 kcal/mol | 1.34 ± 0.12 kcal/mol |
| SAGGKPRILLRRETAPDGRPYYVLQVLRRDPSDDGWTPVLEHRFETPEEAERYARELAEKTGYELVGSAGGS [r16_512_TrMRF] | 4.72 ± 0.075 kcal/mol | 4 ± 0.11 kcal/mol | 4.9 ± 0.11 kcal/mol |
| SAGGKRRTINFDIEGMTPEKFVHMARMAIRNLPDPEQVTITINMRNPMWRRWFIELAKELPGIEIEFMSAGG [r13_718_TrROS] | 3.19 ± 0.15 kcal/mol | 2.52 ± 0.061 kcal/mol | 3.43 ± 0.044 kcal/mol |
| SAGGKTIEVWFLFPPGMPPEEVASTIAKLLPPGFKIDVEILEVQPDPGGEDYIIFKATIYYPDDGQPISAGG [r13_12_TrROS] | 4.26 ± 0.25 kcal/mol | 3.34 ± 0.15 kcal/mol | 4.68 ± 0.16 kcal/mol |
| SAGGKTIPIWFRVPPGMTPEEAADELADEIANELQQQNGKEIEIKIDDVEPNPNGWNIVRIKIEVDPSAGGS [r8_156_TrROS] | 0.26 ± 0.32 kcal/mol | 0.176 ± 0.3 kcal/mol | 0.433 ± 0.43 kcal/mol |
| SAGGKTIYFPISEARNFLKEAIDNGLDNIRIEVFNGDKPREIDIPPGNLDDLIDNIPPNSWVQIEPKSAGGS [r16_636_TrROS] | 0.221 ± 0.072 kcal/mol | -0.645 ± 0.095 kcal/mol | 0.536 ± 0.089 kcal/mol |
| SAGGKTLVITVEAPPEDWDKILELAREALELGGDVVVVAPFPDGLTVTVRAEKPLGKIVEVTVAPDDASAGG [r13_873_TrMRF] | 1.15 ± 0.095 kcal/mol | 0.578 ± 0.053 kcal/mol | 1.5 ± 0.071 kcal/mol |
| SAGGKTVTTPEQILELIKENPGKTYTITITVPKENQKKVEELKKALEEAGLTVEENENGTLTVTIKPSAGGS [r16_335_TrROS_Hall] | 3.42 ± 0.28 kcal/mol | 2.2 ± 0.17 kcal/mol | 3.89 ± 0.14 kcal/mol |
